Experimental findings from publication PMC2967539 are described below.

The test concerns the target human dipeptidyl peptidase IV (human) (UniProt P27487).
Sequence of UniProt P27487 (P27487 whole entry): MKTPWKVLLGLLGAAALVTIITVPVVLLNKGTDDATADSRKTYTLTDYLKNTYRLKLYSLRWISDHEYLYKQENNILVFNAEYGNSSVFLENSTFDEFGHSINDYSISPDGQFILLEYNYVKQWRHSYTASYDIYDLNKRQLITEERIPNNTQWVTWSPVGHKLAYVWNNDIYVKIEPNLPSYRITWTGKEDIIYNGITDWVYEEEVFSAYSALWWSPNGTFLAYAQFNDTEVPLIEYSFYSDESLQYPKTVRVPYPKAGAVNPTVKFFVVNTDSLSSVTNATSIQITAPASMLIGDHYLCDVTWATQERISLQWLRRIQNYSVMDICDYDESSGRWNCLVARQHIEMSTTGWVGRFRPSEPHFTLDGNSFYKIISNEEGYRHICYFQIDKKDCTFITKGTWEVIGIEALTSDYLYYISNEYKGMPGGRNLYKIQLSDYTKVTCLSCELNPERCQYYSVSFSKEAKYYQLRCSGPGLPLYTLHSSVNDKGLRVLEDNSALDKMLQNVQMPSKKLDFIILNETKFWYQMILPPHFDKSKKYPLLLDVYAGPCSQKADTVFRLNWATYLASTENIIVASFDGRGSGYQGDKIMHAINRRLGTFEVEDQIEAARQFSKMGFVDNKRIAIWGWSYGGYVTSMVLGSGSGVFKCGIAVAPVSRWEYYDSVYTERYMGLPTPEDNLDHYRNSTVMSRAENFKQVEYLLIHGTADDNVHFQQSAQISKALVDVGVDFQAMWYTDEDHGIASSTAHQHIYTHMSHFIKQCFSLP

On to “Tat-1-86 protein (Immuno-Diagnostics) (from UniProt P04610 1-86) (natural protein)”, for which the cleavage of GLP1 (31.25 uM) by purified DPPIV (16 nM) in the presence of 1 uM Tat-1-86, MALDI-TOF mass spectrometry, after 5 min at 37 °C (all GLP1 cleaved within 5 min without Tat) was 40%.
